Literature values as cited in publication PMC7035337.

Biological target: vimentin (Homo sapiens) (UniProt P08670)
Sequence (P08670 2-466): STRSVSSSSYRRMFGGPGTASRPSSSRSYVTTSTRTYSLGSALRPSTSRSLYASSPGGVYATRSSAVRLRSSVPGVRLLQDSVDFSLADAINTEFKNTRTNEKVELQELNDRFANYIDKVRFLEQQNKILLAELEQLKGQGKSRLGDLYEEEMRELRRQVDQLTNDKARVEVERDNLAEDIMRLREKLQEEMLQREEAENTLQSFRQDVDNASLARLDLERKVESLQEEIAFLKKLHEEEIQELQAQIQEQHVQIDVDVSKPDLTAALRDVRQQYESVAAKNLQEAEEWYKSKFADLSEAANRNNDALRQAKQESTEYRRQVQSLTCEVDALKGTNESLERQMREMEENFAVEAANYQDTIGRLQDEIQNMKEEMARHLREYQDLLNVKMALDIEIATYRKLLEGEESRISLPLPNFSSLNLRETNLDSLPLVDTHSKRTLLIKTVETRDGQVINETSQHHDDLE

envoplakin PRD, sequence (Q92817 1822-2014): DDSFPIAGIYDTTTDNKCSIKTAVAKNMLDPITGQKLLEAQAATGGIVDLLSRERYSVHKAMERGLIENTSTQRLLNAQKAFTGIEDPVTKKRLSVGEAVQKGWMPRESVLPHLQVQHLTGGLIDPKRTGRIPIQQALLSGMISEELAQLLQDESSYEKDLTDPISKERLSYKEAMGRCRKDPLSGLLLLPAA

Kd: 19.1 µM
Substance: envoplakin PRD (from UniProt Q92817)
